Measurements: PMC1569432, “The yfhQ gene of Escherichia coli encodes a tRNA:Cm32/Um32 methyltransferase” (BMC Molecular Biology, 2006)

Molecular target: the molecule itself
Assay: SEC; gel filtration of purified YfhQ on Superdex 200 in buffer B (50 mM Tris-HCl pH 7.5, 150 mM NaCl, 10 mM MgCl2, 10% glycerol); self-association, dimer

B1: YfhQ protein of Escherichia coli, His-tagged (enzyme, UniProt P0AE01 1-246, looked up)
chain: MLQNIRIVLVETSHTGNMGSVARAMKTMGLTNLWLVNPLVKPDSQAIALAAGASDVIGNAHIVDTLDEALAGCSLVVGTSARSRTLPWPMLDPRECGLKSVAEAANTPVALVFGRERVGLTNEELQKCHYHVAIAANPEYSSLNLAMAVQVIAYEVRMAWLATQENGEQVEHEETPYPLVDDLERFYGHLEQTLLATGFIRENHPGQVMNKLRRLFTRARPESQELNILRGILASIEQQNKGNKAE
notes: YfhQ (TrmJ), SPOUT superfamily methyltransferase of Escherichia coli; yfhQ gene in the pCA24N vector; theoretical mass of the His-tagged monomer 29.168 kDa; also called TrMet(Xm32); TrmJ; source: E. coli BL21 (DE3), purified (Ni2+ Chelating Sepharose, Superdex 200 gel filtration)
stoichiometry N: 2
